Reference: patent publication US20260115256A1 (HANGZHOU SCIWIND BIOSCIENCES, published 2026)
*1 amine or outer side, *2 acyl side, *3 side chain or, on linkers, in order; H or OH if unused. Bridges are numbered along the chain shown (N, C = ends). Where no end group is shown, it is not given here. Side-chain parts run from the residue outwards. [ ]: non-standard residue; d: D form. The star is where a group is joined. C20 diacid = O=C(O)CCCCCCCCCCCCCCCCCCC(=O)*; C18 diacid = O=C(O)CCCCCCCCCCCCCCCCC(=O)*; γGlu = O=C(O)[C@H](CCC(=O)[*:2])N[*:1]; Hyp = O=C(O)[C@@H]1C[C@@H](O)CN1; AEEA = NCCOCCOCC(=O)O

T1: human amylin receptor (AMY3) on CHO-K1/Ga15/AMY3 cells (human, UniProt P30988 25-474; O60896 24-148)
T1 sequence (looked up) 1: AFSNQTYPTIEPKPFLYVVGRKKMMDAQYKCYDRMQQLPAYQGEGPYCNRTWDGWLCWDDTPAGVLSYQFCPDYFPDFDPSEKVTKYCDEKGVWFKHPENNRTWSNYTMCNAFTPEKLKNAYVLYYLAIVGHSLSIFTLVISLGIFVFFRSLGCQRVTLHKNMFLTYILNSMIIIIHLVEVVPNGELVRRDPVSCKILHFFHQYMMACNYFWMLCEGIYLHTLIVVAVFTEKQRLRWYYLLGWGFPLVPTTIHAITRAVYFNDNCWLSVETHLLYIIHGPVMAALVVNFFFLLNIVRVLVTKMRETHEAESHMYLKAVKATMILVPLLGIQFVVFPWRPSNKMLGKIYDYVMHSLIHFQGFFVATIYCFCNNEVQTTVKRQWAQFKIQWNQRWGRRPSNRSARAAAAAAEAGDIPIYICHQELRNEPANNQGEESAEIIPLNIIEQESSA
T1 sequence (looked up) 2: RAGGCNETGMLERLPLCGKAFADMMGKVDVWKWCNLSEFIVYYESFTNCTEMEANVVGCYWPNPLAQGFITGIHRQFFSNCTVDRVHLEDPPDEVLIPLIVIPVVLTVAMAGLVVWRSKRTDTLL


Target: T1, human amylin receptor (AMY3) on …
Test: cell-based or functional assay

| Binder | EC50, CRE-luciferase assay |
| --- | --- |
| RCNTATCATQRLADFLRHSK([AEEA-AEEA-γGlu-C18 diacid])NNLGPILPPTNVGSNT[Hyp]-NH2 (disulfide 2-7 (inferred)) [PD097] | 14 pM |
| RCNTATCATQRLADFLRHSSK([γGlu-C18 diacid])NLGPILPPTNVGSNT[Hyp]-NH2 (disulfide 2-7 (inferred)) [PD092] | 16 pM |
| RCNTATCATQRLADFLRHK([γGlu-C20 diacid])SNNLGPILPPTNVGSNT[Hyp]-NH2 (disulfide 2-7 (inferred)) [PD098] | 77 pM |
| RCNTATCATQRLADFLRHSK([AEEA-AEEA-γGlu-C20 diacid])NNLGPILPPTNVGSNT[Hyp]-NH2 (disulfide 2-7 (inferred)) [PD095] | 47 pM |
| RCNTATCATQRLADFLRHSSK([AEEA-AEEA-γGlu-C20 diacid])NLGPILPPTNVGSNT[Hyp]-NH2 (disulfide 2-7 (inferred)) [PD091] | 30 pM |
| RCNTATCATQRLAEFLRHSSNNK([γGlu-C20 diacid])GPILPPTNVGSNTP-NH2 (disulfide 2-7 (inferred)) [PD008] | 281 pM |
| RCNTATCATQRLADFLRHSK([γGlu-C18 diacid])NNLGPILPPTNVGSNT[Hyp]-NH2 (disulfide 2-7 (inferred)) [PD096] | 42 pM |
| RCNTATCATQRLADFLRHSK([γGlu-C20 diacid])NNLGPILPPTNVGSNT[Hyp]-NH2 (disulfide 2-7 (inferred)) [PD094] | 34 pM |
| RCNTATCATQRLADFLRHSSK([AEEA-AEEA-γGlu-C18 diacid])NLGPILPPTNVGSNT[Hyp]-NH2 (disulfide 2-7 (inferred)) [PD093] | 19 pM |

Second part, the binder after the results:

| EC50, CRE-luciferase assay | Binder |
| --- | --- |
| 11 pM | RCNTATCATQRLADFLRHSSNNLGK([γGlu-C18 diacid])ILPPTNVGSNT[Hyp]-NH2 (disulfide 2-7 (inferred)) [PD104] |
| 33 pM | RCNTATCATQRLADFLRHK([AEEA-AEEA-γGlu-C20 diacid])SNNLGPILPPTNVGSNT[Hyp]-NH2 (disulfide 2-7 (inferred)) [PD099] |
| 60 pM | RCNTATCATQRLADFLRHK([γGlu-C18 diacid])SNNLGPILPPTNVGSNT[Hyp]-NH2 (disulfide 2-7 (inferred)) [PD100] |
| 33 pM | RCNTATCATQRLADFLRHSSNNLGK([γGlu-C20 diacid])ILPPTNVGSNT[Hyp]-NH2 (disulfide 2-7 (inferred)) [PD102] |
| 12 pM | RCNTATCATQRLADFLRHK([AEEA-AEEA-γGlu-C18 diacid])SNNLGPILPPTNVGSNT[Hyp]-NH2 (disulfide 2-7 (inferred)) [PD101] |
| 33 pM | RCNTATCATQRLADFLRHSSNNLGK([AEEA-AEEA-γGlu-C20 diacid])ILPPTNVGSNT[Hyp]-NH2 (disulfide 2-7 (inferred)) [PD103] |
